We go through two molecules from article PMC2764420.

The term stoichiometry N denotes the number of molecules, sites or subunits per partner or assembly. As a reminder, the Kd is the constant that tells how readily two partners part at equilibrium.

Assay [1] deals with Tn10 transposase. Description: cross-linking.
Assay [2] addresses Tn10 transposase. Description: cross-linking. The source holds these as a separate data set.
Assay [3] deals with folded Tn10 transpososome (UniProt P0A6X7). Briefly: native gel or EMSA. On the technique in general: A gel shift assay detects complexes by their altered migration in electrophoresis.
Assay [4] concerns the target pre-unfolded Tn10 transpososome. Description: native gel or EMSA.

Read-outs that look alike come from different tables or passages of the source.

Chain of UniProt P0A6X7 (P0A6X7 whole entry, looked up): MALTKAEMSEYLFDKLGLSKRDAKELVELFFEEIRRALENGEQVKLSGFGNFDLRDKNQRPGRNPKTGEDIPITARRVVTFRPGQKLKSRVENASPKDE

For Tn10 transposase (enzyme), the stoichiometry N with Tn10 transposase [1] and in the assay with Tn10 transposase [2] was 2 each time.

B1: H-NS (histone-like nucleoid-structuring protein), wild type (natural protein)
chain: MSEALKILNNIRTLRAQARECTLETLEEMLEKLEVVVNERREEESAAAAEVEERTRKLQQYREMLIADGIDPNELLNSLAAVKSGTKAKRAQRPAKYSYVDENGETKTWTGQGRTPAVIKKAMDEQGKSLDDFLIKQ
As to B1, the percent of transpososome converted to an H-NS form at 6 nM H-NS in assay [3] was 5%. Besides, in assay [4], the Kd was found to be 300 pM and the percent of transpososome converted to an H-NS-bound form is > 95%.
